Several values for one entry are separate records, joined by “and”; a condition that tells them apart may be missing. Identical values can stand only once.
Experiments:
Type in all cases: binding
[1] = Probe fluorescence ratio response to oleic acid relative to ADIFAB2; conditions: response relative to ADIFAB2
Method in brief: (§1)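 Fluorescently labeled rat intestinal FABP variants were read at two emission wavelengths, near the unbound maximum (about 420 to 480 nm) and the FFA-bound maximum (about 495 to 580 nm). R = Fλ1/Fλ2 after subtracting probe-free intensity; ΔR = R+agent − R0, normalized to ADIFAB2 (rI-FABP-L72A).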

[2] = Probe fluorescence ratio response to linolenic acid relative to ADIFAB2; conditions: response relative to ADIFAB2
Method in brief: as §1

[3] = Probe fluorescence ratio response to palmitic acid relative to ADIFAB2; conditions: response relative to ADIFAB2
Method in brief: as §1

[4] = Probe fluorescence ratio response to linoleic acid relative to ADIFAB2; conditions: response relative to ADIFAB2
Method in brief: as §1

[5] = Probe fluorescence ratio response to arachidonic acid relative to ADIFAB2; conditions: arachidonic acid; response relative to ADIFAB2
Method in brief: as §1

Molecule	DR/DR OA [1]	DR/DR LNA [2]	DR/DR PA [3]	DR/DR LA [4]	DR/DR AA [5]
31K2, 72A (protein, listed as Rattus norvegicus, PEPTIDE (1)...(131) wild-type rat intestinal fatty acid binding protein) AFDGTWKVDRNENYEKFMEKMGINVVKRKLKAHDNLKLTITQEGNKFTVKESSNFRNIDVVFELGVDFAYSAADGTELTGTWTMEGNKLVGKFKRVDNGKELIAVREISGNELIQTYTYEGVEAKRIFKKE	0.97	0.90	0.42	0.91	0.85
31R1, 72A (protein, listed as Rattus norvegicus, PEPTIDE (1)...(131) wild-type rat intestinal fatty acid binding protein) AFDGTWKVDRNENYEKFMEKMGINVVKRKLRAHDNLKLTITQEGNKFTVKESSNFRNIDVVFELGVDFAYSAADGTELTGTWTMEGNKLVGKFKRVDNGKELIAVREISGNELIQTYTYEGVEAKRIFKKE	0.23	0.44	0.34	0.40	0.25
34C, 72A (protein, listed as Rattus norvegicus, PEPTIDE (1)...(131) wild-type rat intestinal fatty acid binding protein) AFDGTWKVDRNENYEKFMEKMGINVVKRKLGAHCNLKLTITQEGNKFTVKESSNFRNIDVVFELGVDFAYSAADGTELTGTWTMEGNKLVGKFKRVDNGKELIAVREISGNELIQTYTYEGVEAKRIFKKE	0.30	0.33	0.18	0.59	0.34
31Y2, 72A (protein, listed as Rattus norvegicus, PEPTIDE (1)...(131) wild-type rat intestinal fatty acid binding protein) AFDGTWKVDRNENYEKFMEKMGINVVKRKLYAHDNLKLTITQEGNKFTVKESSNFRNIDVVFELGVDFAYSAADGTELTGTWTMEGNKLVGKFKRVDNGKELIAVREISGNELIQTYTYEGVEAKRIFKKE	0.01	0.80	0.17	0.36	0.37
31T2, 72A (protein, listed as Rattus norvegicus, PEPTIDE (1)...(131) wild-type rat intestinal fatty acid binding protein) AFDGTWKVDRNENYEKFMEKMGINVVKRKLTAHDNLKLTITQEGNKFTVKESSNFRNIDVVFELGVDFAYSAADGTELTGTWTMEGNKLVGKFKRVDNGKELIAVREISGNELIQTYTYEGVEAKRIFKKE	0.53	0.91	0.41	0.75	0.65
31N2, 72A (protein, listed as Rattus norvegicus, PEPTIDE (1)...(131) wild-type rat intestinal fatty acid binding protein) AFDGTWKVDRNENYEKFMEKMGINVVKRKLNAHDNLKLTITQEGNKFTVKESSNFRNIDVVFELGVDFAYSAADGTELTGTWTMEGNKLVGKFKRVDNGKELIAVREISGNELIQTYTYEGVEAKRIFKKE	0.91	1.06	0.50	1.04	0.88
31W2, 72A (protein, listed as Rattus norvegicus, PEPTIDE (1)...(131) wild-type rat intestinal fatty acid binding protein) AFDGTWKVDRNENYEKFMEKMGINVVKRKLWAHDNLKLTITQEGNKFTVKESSNFRNIDVVFELGVDFAYSAADGTELTGTWTMEGNKLVGKFKRVDNGKELIAVREISGNELIQTYTYEGVEAKRIFKKE	0.87	1.03	0.62	1.15	0.99
31M2, 72A (protein, listed as Rattus norvegicus, PEPTIDE (1)...(131) wild-type rat intestinal fatty acid binding protein) AFDGTWKVDRNENYEKFMEKMGINVVKRKLMAHDNLKLTITQEGNKFTVKESSNFRNIDVVFELGVDFAYSAADGTELTGTWTMEGNKLVGKFKRVDNGKELIAVREISGNELIQTYTYEGVEAKRIFKKE	1.08	0.57	0.46	0.41	0.52
34A, 72A (protein, listed as Rattus norvegicus, PEPTIDE (1)...(131) wild-type rat intestinal fatty acid binding protein) AFDGTWKVDRNENYEKFMEKMGINVVKRKLGAHANLKLTITQEGNKFTVKESSNFRNIDVVFELGVDFAYSAADGTELTGTWTMEGNKLVGKFKRVDNGKELIAVREISGNELIQTYTYEGVEAKRIFKKE	0.49	0.57	0.33	0.57	0.58
31Y1, 72A (protein, listed as Rattus norvegicus, PEPTIDE (1)...(131) wild-type rat intestinal fatty acid binding protein) AFDGTWKVDRNENYEKFMEKMGINVVKRKLYAHDNLKLTITQEGNKFTVKESSNFRNIDVVFELGVDFAYSAADGTELTGTWTMEGNKLVGKFKRVDNGKELIAVREISGNELIQTYTYEGVEAKRIFKKE	1.55	1.61	1.10	1.75	1.78
31P1, 72A (protein, listed as Rattus norvegicus, PEPTIDE (1)...(131) wild-type rat intestinal fatty acid binding protein) AFDGTWKVDRNENYEKFMEKMGINVVKRKLPAHDNLKLTITQEGNKFTVKESSNFRNIDVVFELGVDFAYSAADGTELTGTWTMEGNKLVGKFKRVDNGKELIAVREISGNELIQTYTYEGVEAKRIFKKE	0.22	0.27	0.23	0.30	0.25
34G, 72A (protein, listed as Rattus norvegicus, PEPTIDE (1)...(131) wild-type rat intestinal fatty acid binding protein) AFDGTWKVDRNENYEKFMEKMGINVVKRKLGAHGNLKLTITQEGNKFTVKESSNFRNIDVVFELGVDFAYSAADGTELTGTWTMEGNKLVGKFKRVDNGKELIAVREISGNELIQTYTYEGVEAKRIFKKE	0.13	0.29	0.18	0.33	0.54
34E, 72A (protein, listed as Rattus norvegicus, PEPTIDE (1)...(131) wild-type rat intestinal fatty acid binding protein) AFDGTWKVDRNENYEKFMEKMGINVVKRKLGAHENLKLTITQEGNKFTVKESSNFRNIDVVFELGVDFAYSAADGTELTGTWTMEGNKLVGKFKRVDNGKELIAVREISGNELIQTYTYEGVEAKRIFKKE	0.49 and 0.486	0.57 and 0.571	0.48 and 0.482	0.60 and 0.604	0.62 and 0.618
31V2, 72A (protein, listed as Rattus norvegicus, PEPTIDE (1)...(131) wild-type rat intestinal fatty acid binding protein) AFDGTWKVDRNENYEKFMEKMGINVVKRKLVAHDNLKLTITQEGNKFTVKESSNFRNIDVVFELGVDFAYSAADGTELTGTWTMEGNKLVGKFKRVDNGKELIAVREISGNELIQTYTYEGVEAKRIFKKE	0.08	0.78	0.21	0.38	0.40
31Q3, 72A (protein, listed as Rattus norvegicus, PEPTIDE (1)...(131) wild-type rat intestinal fatty acid binding protein) AFDGTWKVDRNENYEKFMEKMGINVVKRKLQAHDNLKLTITQEGNKFTVKESSNFRNIDVVFELGVDFAYSAADGTELTGTWTMEGNKLVGKFKRVDNGKELIAVREISGNELIQTYTYEGVEAKRIFKKE	1.31	1.49	1.04	1.47	1.02
